Measured values from article PMC2952847.

What was measured:
RHAU(ΔGly–RSM)-FLAG = molecular target: T1, RHAU(ΔGly–RSM)-FLAG (Homo sapiens, UniProt Q9H2U1 105-1008); assay: EMSA
T1 sequence: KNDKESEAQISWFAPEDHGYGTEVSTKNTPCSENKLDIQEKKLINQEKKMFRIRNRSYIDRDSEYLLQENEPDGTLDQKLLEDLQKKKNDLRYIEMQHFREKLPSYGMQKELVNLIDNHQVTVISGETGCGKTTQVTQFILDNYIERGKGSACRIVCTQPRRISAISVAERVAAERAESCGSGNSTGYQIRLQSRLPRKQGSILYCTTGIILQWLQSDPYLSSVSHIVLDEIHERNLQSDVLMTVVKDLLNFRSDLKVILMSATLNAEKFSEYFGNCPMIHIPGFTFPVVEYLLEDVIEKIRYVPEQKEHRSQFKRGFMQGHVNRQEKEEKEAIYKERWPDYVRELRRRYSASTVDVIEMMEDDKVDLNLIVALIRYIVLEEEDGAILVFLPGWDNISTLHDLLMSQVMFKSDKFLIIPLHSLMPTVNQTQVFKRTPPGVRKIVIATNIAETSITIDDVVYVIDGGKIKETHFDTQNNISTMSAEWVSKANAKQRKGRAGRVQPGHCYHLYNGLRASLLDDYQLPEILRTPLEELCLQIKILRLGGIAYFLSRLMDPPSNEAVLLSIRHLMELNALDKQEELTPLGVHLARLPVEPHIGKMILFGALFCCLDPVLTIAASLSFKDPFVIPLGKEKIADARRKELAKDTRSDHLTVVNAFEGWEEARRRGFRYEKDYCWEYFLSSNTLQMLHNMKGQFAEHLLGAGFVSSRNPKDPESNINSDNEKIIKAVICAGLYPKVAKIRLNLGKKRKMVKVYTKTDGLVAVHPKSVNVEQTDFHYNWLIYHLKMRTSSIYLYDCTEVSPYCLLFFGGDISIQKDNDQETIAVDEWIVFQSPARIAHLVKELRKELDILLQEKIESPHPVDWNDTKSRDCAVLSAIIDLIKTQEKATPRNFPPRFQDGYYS

GST-RHAU(WT) = molecular target: T2, GST-RHAU(WT) (Homo sapiens, UniProt Q9H2U1 1-1008); assay: EMSA
T2 sequence: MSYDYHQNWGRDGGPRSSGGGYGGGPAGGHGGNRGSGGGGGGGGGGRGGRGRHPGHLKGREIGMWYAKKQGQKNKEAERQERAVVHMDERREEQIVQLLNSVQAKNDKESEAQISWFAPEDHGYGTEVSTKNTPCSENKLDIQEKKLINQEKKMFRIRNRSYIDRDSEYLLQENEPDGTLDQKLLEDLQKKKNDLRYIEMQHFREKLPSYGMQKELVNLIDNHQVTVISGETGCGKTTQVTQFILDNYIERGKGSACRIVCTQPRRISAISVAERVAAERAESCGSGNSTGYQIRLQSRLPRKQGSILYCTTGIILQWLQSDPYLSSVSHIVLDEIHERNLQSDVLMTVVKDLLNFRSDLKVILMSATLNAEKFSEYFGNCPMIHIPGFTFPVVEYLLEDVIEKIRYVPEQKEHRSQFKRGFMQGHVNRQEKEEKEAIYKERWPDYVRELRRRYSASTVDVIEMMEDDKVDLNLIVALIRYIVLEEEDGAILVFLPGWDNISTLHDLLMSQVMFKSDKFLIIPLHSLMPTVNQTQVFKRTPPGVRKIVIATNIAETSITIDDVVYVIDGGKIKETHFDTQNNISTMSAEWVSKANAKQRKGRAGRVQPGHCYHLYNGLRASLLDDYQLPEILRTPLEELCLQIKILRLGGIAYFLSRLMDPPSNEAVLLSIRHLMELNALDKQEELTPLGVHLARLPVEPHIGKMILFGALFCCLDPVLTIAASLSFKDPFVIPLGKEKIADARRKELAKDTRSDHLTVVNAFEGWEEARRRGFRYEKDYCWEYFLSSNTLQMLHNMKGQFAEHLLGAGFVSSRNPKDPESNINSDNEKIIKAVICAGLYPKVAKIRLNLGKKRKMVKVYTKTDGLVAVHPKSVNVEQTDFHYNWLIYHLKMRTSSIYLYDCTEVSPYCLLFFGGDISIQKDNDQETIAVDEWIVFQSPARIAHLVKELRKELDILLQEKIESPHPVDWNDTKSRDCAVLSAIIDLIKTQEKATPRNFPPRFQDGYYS

## AAAAAAAAAAAAAAAGGGGGAAAAAAAAAAAAAAA (structured_RNA) [tetramolecular G4-rAGA]
RHAU(ΔGly–RSM)-FLAG
  binding result: no binding
GST-RHAU(WT)
  Kd: 0.014 µM
